Measurements: the supplement of paper PMC10567573
± gives the standard deviation.

Assay: protein stability index of a GFP-peptide fusion (GPS, HEK-293T) (PSI 1-6); higher = more stable
[1] = treatment: DMSO, c terminus: a fixed tail appended
[2] = treatment: MLN4924 1 uM, 8 h, c terminus: a fixed tail appended
[3] = treatment: DMSO, c terminus: native
[4] = treatment: MLN4924 1 uM, 8 h, c terminus: native
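Note: 24-mer peptide tiles fused after GFP, lentivirally expressed, FACS-sorted into six equal bins by GFP/DsRed ratio, decoded by Illumina sequencing, PSI is the read-weighted mean bin number.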

Sequence | protein stability index [1] | protein stability index [2] | protein stability index [3] | protein stability index [4]
IFNNVMTLCAMLPLLLFTYLNSFL [SLC29A1] | 3.25 ± 0.25 | 3.23 ± 0.2 | – | –
IFSVTALDPDSKENAQIIYSLAED [PCDHGA10] | 3.1 ± 0.47 | 3.21 ± 0.19 | – | –
IFTTPNFDETSSATTISTSEDGSY [KMT2E] | 4.75 ± 0.13 | 4.67 ± 0.26 | – | –
IFYFVIQRKKWVDLAWMITFYVRF [FADS1] | 2.6 ± 0.72 | 2.93 ± 0.94 | – | –
IGEEVRQLMEKLREKQLSHSLRAV [BEX1] | 2.68 ± 0.14 | 2.82 ± 0.22 | – | –
IIYKQTKGGVQNFNKDLVQDCGFE [CEP70] | 1.96 ± 0.42 | 2.66 ± 0.22 | – | –
IKKKGWRRSSLVITTKIFWGGKAE [KCNAB2] | 2.51 ± 0.55 | 2.75 ± 0.64 | – | –
IKPSNIFISRTSIPNAASEEGDED [WEE1] | 4.71 ± 0.24 | 4.97 ± 0.27 | – | –
IKVEQATKPSFESGRRGPPPPPRS [RBMX] | 4.06 ± 0.36 | 4.17 ± 0.34 | – | –
ILESSQTLLSVLKREAGNLTKATA [SSNA1] | 2.69 ± 0.46 | 2.99 ± 0.29 | – | –
ILHPELTVDSMIPAYATTRIRSQI [GDAP1] | 2.52 ± 0.2 | 2.55 ± 0.17 | – | –
ILREELQKQRLREILEQQQQERND [ZNF277] | 4.4 ± 0.51 | 4.32 ± 0.33 | – | –
ILTFLRAGKLRLLREMCALSFQEE [KCNG1] | 3.24 ± 0.69 | 2.19 ± 0.28 | – | –
IMNEKCVVENAEKILGYLNTNVLS [SLC6A17] | 2.92 ± 0.35 | 2.47 ± 0.5 | – | –
INDEMQAKGIPQRAPPKRKRKRVK [PCMTD1] | 5.51 ± 0.23 | 5.36 ± 0.24 | – | –
INKEELEGNSMRCGRKLAKDGEYC [GMCL1] | 4.04 ± 0.36 | 4.15 ± 0.49 | – | –
INRWRFLLQCLEDLDANLRKLNSR [CRY1] | 2.06 ± 0.16 | 2.45 ± 0.15 | – | –
IPKPQSTGWFGGGFTSYLGFGDED [MIA2] | 3.14 ± 0.16 | 3.53 ± 0.55 | – | –
IPYFITLGTELAERQGNGQQAMSL [KCNA3] | 3.03 ± 0.59 | 3.01 ± 0.37 | – | –
IREDEVHRLGSPYGHCTAGGEGVE [SCNN1D] | 4.8 ± 0.26 | 4.85 ± 0.11 | – | –
IRKERKRLKLMQQNPAGELEGFQA [ATE1] | 3.87 ± 0.65 | 3.76 ± 0.32 | – | –
ISAHKPLLISSCDWMAAMFGGPFV [RHOBTB2] | 2.51 ± 0.57 | 2.44 ± 0.2 | – | –

Sequence | protein stability index [1] | protein stability index [2] | protein stability index [3] | protein stability index [4]
ISFGQLSDRFGRKKVYLTGFALDI [SLC22A15] | 2.97 ± 0.43 | 2.73 ± 0.59 | – | –
ISGREVFEFRPELVNDDDEEADDT [ZC3H15] | 5.51 ± 0.26 | 5.47 ± 0.16 | – | –
ISLMYGGSKRKSSFFSSPPYFED [SLA] | – | – | 2.22 ± 0.22 | 2.27 ± 0.27
ISVLAFSVCFIFTITIGMFPAVTV [SLC29A1] | 2.96 ± 0.13 | 2.92 ± 0.32 | – | –
ISVTAYQNPQITQLKIAANPFAKG [TBX6] | 2.33 ± 0.22 | 2.36 ± 0.16 | – | –
ISYLVLSMISMGLFSIAPLIYGSM [JAGN1] | 2.91 ± 0.46 | 3.19 ± 0.17 | – | –
ITCLTCQGTGYIPTEQVNELVALI [TMEM106C] | 2.17 ± 0.3 | 2.2 ± 0.27 | – | –
ITGLPLDNPSVLSGPMQAALQAAA [SMG5] | 3.08 ± 0.2 | 3.11 ± 0.082 | – | –
ITTDNLQCRERREHPNLVRDHVET [TEKT4] | 4.35 ± 0.085 | 4.44 ± 0.17 | – | –
IVDPTTGKRYCRGKVLGKGGFAKC [PLK2] | 2.63 ± 0.38 | 2.92 ± 0.16 | – | –
IVEVLGIPPAAMLDQAPKARKYFE [DYRK1B] | 2.65 ± 0.42 | 2.93 ± 0.14 | – | –
IYDNAVQGLRRHEILQWVLQTDSQ [LRRC59] | 2.56 ± 0.2 | 2.64 ± 0.35 | – | –
IYGGELGPMMKLKRHFVAQKYKKQ [ACSBG2] | 2.49 ± 0.2 | 2.85 ± 0.25 | – | –
KAPAKKANSTTTAGRDHFLTCGV [BRD3] | – | – | 2.5 ± 0.11 | 2.74 ± 0.26
KASNPDLKLWEIGKIIGGMWRDLT [SMARCE1] | 3.42 ± 1.9 | 2.55 ± 0.64 | – | –
KAVQYEEKNPCRTLCCFCCPCLK [STX11] | – | – | 3.59 ± 0.36 | 3.7 ± 0.084
KDAALATALGDKKSLEGDLEDLKD [LMNB1] | 5.42 ± 0.36 | 5.89 ± 0.14 | – | –
KDGMAFQEALDPGPFDQGSPFAQE [ELF3] | 4.65 ± 0.69 | 4.94 ± 0.12 | – | –
KDGNTPLHVAARYGHELLINTLIT [ANKRD44] | 2.19 ± 0.15 | 2.3 ± 0.46 | – | –
KDMATGKSKGYGFVSFFNKWDAEN [TIA1] | 2.44 ± 0.3 | 2.94 ± 0.28 | – | –
KDRETSKVIYDFIEKTGGVEAVKN [WASL] | 3.28 ± 0.068 | 3.37 ± 0.078 | – | –
KDVSRCVAERKYTQEQARKEFQQV [SMOC2] | 4.49 ± 0.16 | 4.51 ± 0.38 | – | –

Sequence | protein stability index [1] | protein stability index [2] | protein stability index [3] | protein stability index [4]
KEKQSRDFQGRILSVDPEEEREEG [RHOBTB1] | 5.25 ± 0.24 | 5.46 ± 0.55 | – | –
KEMARKVIEHCSNFKEENMDTSR [ZER1] | – | – | 3.77 ± 0.32 | 4.16 ± 0.61
KENAAAPSPVRAPAPSPAKEERKT [PALM] | 5.45 ± 0.24 | 5.53 ± 0.23 | – | –
KERKLECLPPEPSPDDPESVKIIF [FAF2] | 3.97 ± 0.22 | 4.04 ± 0.16 | – | –
KETELPFPKQILDQNNVIENEETG [MIA2] | – | 5.09 ± 0.62 | – | –
KGKAGRVDLVDESGYVSGYKHAGT [TPPP] | 4.32 ± 0.12 | 4.57 ± 0.18 | – | –
KGKFSTDTKGKPTSRTQVYKPPAL [ZC2HC1A] | 3.77 ± 0.19 | 3.8 ± 0.15 | – | –
KHFCPRAPVILVGCQLDLRYADLE [RHOBTB2] | 2.3 ± 0.65 | 2.52 ± 0.59 | – | –
KHLNASNPTEPATIIFTAAREGRE [TOR1AIP2] | 4.13 ± 0.2 | 4.22 ± 0.27 | – | –
KHNHSKSTWLILHHKVYDLTKFLE [CYB5A] | 2.6 ± 0.55 | 2.49 ± 0.41 | – | –
KILLTKSENARLVLQIDNAKLAAD [KRT36] | 2.99 ± 0.15 | 3.08 ± 0.51 | – | –
KIWLVVPSLLELAWEKLLAAFPNL [KLHDC10] | 2.84 ± 0.16 | 2.73 ± 0.11 | – | –
KIYAYPSNITSETGFRTISSLEEI [TMEM192] | 2.59 ± 0.15 | 2.9 ± 0.3 | – | –
KKDRPLARRKSELPQDPHTKKALE [PPP2R5C] | 5.11 ± 0.2 | 4.96 ± 0.12 | – | –
KKFRSSTSSSLGDKSEYLEMEEGV [KCNA4] | 4.6 ± 0.37 | 4.91 ± 0.28 | – | –
KKNHEEEMKEFSSQLAGQVNVEMD [KRT15] | 5.6 ± 0.12 | 5.59 ± 0.23 | – | –
KLIRDFDEKQQEANETLAEMEEEL [VTI1B] | 4.89 ± 0.32 | 5.3 ± 0.19 | – | –
KLLPHQPRIVEMKKGSNGYGFYLR [PDZK1] | 2.37 ± 0.12 | 2.47 ± 0.6 | – | –
KLPSRRQPGLLHLQSCGDLHTFTP [FAM189A2] | 4.92 ± 0.19 | 4.94 ± 0.15 | – | –
KLRAMKELSEAAEAQHGPHSAVAR [STX11] | 4.51 ± 0.13 | 4.6 ± 0.17 | – | –
KLRLFDTPHTPKSLLSKARGIDSS [WEE1] | 3.19 ± 0.092 | 3.26 ± 0.32 | – | –
